Laboratory results published in patent US20040253247A1 (Genentech, published 2004).

B1: RB-R2 (peptide)
peptide: GRQVVDFCLPKWGCLWEEGL
notes: phage clone, Library RB
B2: RBC-R15 (peptide)
peptide: MWDVCFPDWGCLWDV
notes: phage clone, Library RBC
B3: RB-R1 (peptide)
peptide: ERQMEDFCLPQWGCLWGDGV
notes: phage clone, Library RB
B4: RBC-R7 (peptide)
peptide: WDDICFRDWGCLWGS
notes: phage clone, Library RBC
B5: RB-R14 (peptide)
peptide: QRQVVDFCLPQWGCLWGDGS
notes: phage clone, Library RB
B6: RB-R5 (peptide)
peptide: QRLMWEICLPLWGCLWGDGL
notes: phage clone, Library RB
B7: RD-R5 (peptide)
peptide: DTCEDLVRLGLECWA
notes: phage clone, Library RD
B8: RD-R7 (peptide)
peptide: NTCADLVRLGLECWA
notes: phage clone, Library RD
B9: RBC-R11 (peptide)
peptide: VWDLCLPQWGCLWDE
notes: phage clone, Library RBC
B10: RB-R9 (peptide)
peptide: KSRMGDFCLPEWGCLWGDEL
notes: phage clone, Library RB
B11: RC-R3 (peptide)
peptide: DICLPVWGCLW
notes: phage clone, Library RC
B12: RBC-R13 (peptide)
peptide: EFDLCLPTWGCLWED
notes: phage clone, Library RBC
B13: RB-R10 (peptide)
peptide: QRQIMDFCLPHWGCLWGDGF
notes: phage clone, Library RB
B14: RB-R3 (peptide)
peptide: QMQMSDFCLPQWGCLWGDGY
notes: phage clone, Library RB
B15: RD-R1 (peptide)
peptide: DTCSDLVGLGLECWA
notes: phage clone, Library RD
B16: RC-R12 (peptide)
peptide: DICLPVWGCLW
notes: phage clone, Library RC
B17: RBC-R12 (peptide)
peptide: MFDLCLPKWGCLWGN
notes: phage clone, Library RBC
B18: RC-R10 (peptide)
peptide: DICLPVWGCLW
notes: phage clone, Library RC
B19: RD-R6 (peptide)
peptide: DSCGDLLRLGLECWA
notes: phage clone, Library RD
B20: RBC-R20 (peptide)
peptide: EEDVCLPVWGCLWEG
notes: phage clone, Library RBC
B21: RBC-R8 (peptide)
peptide: NWDLCFPDWGCLWDD
notes: phage clone, Library RBC
B22: RBC-R18 (peptide)
peptide: EWDVCFPAWGCLWDQ
notes: phage clone, Library RBC
B23: RBC-R10 (peptide)
peptide: DFDLCLPDWGCLWDD
notes: phage clone, Library RBC
B24: RBC-R6 (peptide)
peptide: FEDLCVVRWGCLWGD
notes: phage clone, Library RBC
B25: RC-R2 (peptide)
peptide: DICLPVWGCLW
notes: phage clone, Library RC
B26: RD-R11 (peptide)
peptide: DTCDDLVQLGLECWA
notes: phage clone, Library RD
B27: RC-R18 (peptide)
peptide: DICLPVWGCLW
notes: phage clone, Library RC
B28: RBC-R1 (peptide)
peptide: MDDICLHHWGCLWDE
notes: phage clone, Library RBC
B29: RBC-R2 (peptide)
peptide: MDDLCLPNWGCLWGD
notes: phage clone, Library RBC
B30: RBC-R9 (peptide)
peptide: SEDFCLPVWGCLWED
notes: phage clone, Library RBC
B31: RBC-R4 (peptide)
peptide: FEDFCLPNWGCLWGS
notes: phage clone, Library RBC
B32: RC-R1 (peptide)
peptide: DICLPVWGCLW
notes: phage clone, Library RC
B33: RBC-R5 (peptide)
peptide: WEDLCLPDWGCLWED
notes: phage clone, Library RBC
B34: RB-R15 (peptide)
peptide: QSQLEDFCLPKWGCLWGDGF
notes: phage clone, Library RB
B35: RBC-R16 (peptide)
peptide: EWDVCLPHWGCLWDG
notes: phage clone, Library RBC
B36: RB-R17 (peptide)
peptide: QGGMGDFCLPQWGCLWGEDL
notes: phage clone, Library RB
B37: RB-R13 (peptide)
peptide: KMGRVDFCLPKWGCLWGDEL
notes: phage clone, Library RB
B38: RB-R12 (peptide)
peptide: QGYMVDFCLPRWGCLWGDAN
notes: phage clone, Library RB
B39: phage clone KEASCSYWLGELVWCDGLDE (peptide)
peptide: KEASCSYWLGELVWCDGLDE
notes: M13/gIII phage display; Focused Libraries
B40: phage clone KEASCSYWLGELVWCVGLDE (peptide)
peptide: KEASCSYWLGELVWCVGLDE
notes: as for B39
B41: phage clone KEASCSYWLGELVWCDTFDE (peptide)
peptide: KEASCSYWLGELVWCDTFDE
notes: as for B39
B42: phage clone DLADCSWHLGELVWCSRVEG (peptide)
peptide: DLADCSWHLGELVWCSRVEG
notes: M13/gIII phage display; Designed Clones
B43: phage clone DLADCSYWLGELVWCSRVEG (peptide)
peptide: DLADCSYWLGELVWCSRVEG
notes: as for B39
B44: phage clone WVEDCSWHLGELVWCVGLDF (peptide)
peptide: WVEDCSWHLGELVWCVGLDF
notes: as for B42
B45: phage clone GEEDCSYHLGELVMCTELDD (peptide)
peptide: GEEDCSYHLGELVMCTELDD
notes: M13/gIII phage display; Secondary Optimization
B46: phage clone KVADCAWHMGELVWCTEVEG (peptide)
peptide: KVADCAWHMGELVWCTEVEG
notes: as for B45
B47: phage clone KEARCWYWHGELVWCSDPEE (peptide)
peptide: KEARCWYWHGELVWCSDPEE
notes: as for B39
B48: phage clone KEADCAWHLGELVWCVAGVE (peptide)
peptide: KEADCAWHLGELVWCVAGVE
notes: as for B39
B49: phage clone KEASCSYWLGELVWCSPGVE (peptide)
peptide: KEASCSYWLGELVWCSPGVE
notes: as for B39
B50: phage clone KEASCSYWLGELVWCTEGVE (peptide)
peptide: KEASCSYWLGELVWCTEGVE
notes: as for B39
B51: phage clone KEASCSYHLGELVWCVAGVE (peptide)
peptide: KEASCSYHLGELVWCVAGVE
notes: as for B39
B52: phage clone KEASCSWHLGELVWCVAGVE (peptide)
peptide: KEASCSWHLGELVWCVAGVE
notes: as for B39
B53: phage clone WEADCAWHLGELVWCTKVEE (peptide)
peptide: WEADCAWHLGELVWCTKVEE
notes: as for B45
B54: phage clone GEADCAWHLGELVWCTKVEE (peptide)
peptide: GEADCAWHLGELVWCTKVEE
notes: as for B45
B55: phage clone DLADCSWHLGELVWCVGLDE (peptide)
peptide: DLADCSWHLGELVWCVGLDE
notes: as for B42
B56: phage clone WVEDCSWHMGELVWCDGGEF (peptide)
peptide: WVEDCSWHMGELVWCDGGEF
notes: as for B39
B57: phage clone GEEDCAWHLGELVWCSGGDF (peptide)
peptide: GEEDCAWHLGELVWCSGGDF
notes: as for B45

Target: rabbit albumin (rabbit, UniProt P49065 25-608)
Assay: phage ELISA
Experimental: (§1) Phage ELISA—Phage clones (˜10¹¹ phage) were added to plates coated with rat, rabbit or human albumin. The microtiter plate was washed with wash buffer and bound phage were detected with HRP/Anti-M13 Conjugate. The amount of HRP bound was measured using ABTS/H₂O₂ substrate and monitoring the change at 405 nm.

Chain of rabbit albumin (P49065 25-608 limits assumed): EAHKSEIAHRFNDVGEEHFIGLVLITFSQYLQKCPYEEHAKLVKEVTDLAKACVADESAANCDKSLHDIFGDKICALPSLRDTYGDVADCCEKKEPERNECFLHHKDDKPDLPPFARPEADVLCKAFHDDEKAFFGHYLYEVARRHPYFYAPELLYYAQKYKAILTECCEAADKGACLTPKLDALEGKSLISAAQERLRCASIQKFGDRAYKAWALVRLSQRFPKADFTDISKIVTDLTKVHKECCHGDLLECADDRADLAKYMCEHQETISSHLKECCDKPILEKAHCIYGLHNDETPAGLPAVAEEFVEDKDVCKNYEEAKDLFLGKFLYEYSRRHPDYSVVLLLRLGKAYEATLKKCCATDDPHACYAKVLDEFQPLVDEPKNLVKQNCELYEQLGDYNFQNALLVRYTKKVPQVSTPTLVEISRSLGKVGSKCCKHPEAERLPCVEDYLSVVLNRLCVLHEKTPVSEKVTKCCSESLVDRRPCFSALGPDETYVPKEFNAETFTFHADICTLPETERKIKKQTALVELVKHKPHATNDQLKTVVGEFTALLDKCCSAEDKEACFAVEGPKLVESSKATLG

Binder	binding result
B1	no binding
B2	no binding
B3	no binding
B4	no binding
B5	no binding
B6	no binding
B7	no binding
B8	no binding
B9	no binding
B10	no binding
B11	no binding
B12	no binding
B13	no binding
B14	no binding
B15	no binding
B16	no binding
B17	no binding

Binder	binding result
B18	no binding
B19	no binding
B20	no binding
B21	no binding
B22	no binding
B23	no binding
B24	no binding
B25	no binding
B26	no binding
B27	no binding
B28	no binding
B29	no binding
B30	no binding
B31	no binding
B32	no binding
B33	no binding

Target: human albumin (human, UniProt P02768 25-609)
Assay: phage ELISA
Experimental: as §1

Binder	binding result
B1	no binding
B2	no binding
B3	no binding
B4	no binding
B5	no binding
B6	no binding
B7	no binding
B8	no binding
B9	no binding
B10	no binding
B11	no binding
B34	no binding
B35	no binding
B12	no binding
B13	no binding
B14	no binding
B15	no binding
B16	no binding
B17	no binding

Binder	binding result
B18	no binding
B19	no binding
B20	no binding
B36	no binding
B21	no binding
B22	no binding
B23	no binding
B24	no binding
B25	no binding
B37	no binding
B26	no binding
B27	no binding
B28	no binding
B38	no binding
B29	no binding
B30	no binding
B31	no binding
B32	no binding
B33	no binding

Target: T1, IgG-Fc (UniProt P01857-1 108-330 = IgG part, limits assumed)
T1 construct: domain: IgG-Fc; also called biotinylated-IgG-Fc; biotin-IgG-Fc
Assay: phage ELISA, M13/gIII display

Binder	EC50
B39	326 nM
B40	278 nM
B41	301 nM
B42	9 nM
B43	776 nM
B44	31 nM
B45	69 nM
B46	23 nM
B47	809 nM
B48	138 nM
B49	734 nM
B50	818 nM
B51	416 nM
B52	225 nM
B53	7 nM
B54	38 nM
B55	28 nM
B56	139 nM
B57	100 nM
